According to publication PMC9036094, “Antigen-derived peptides engage the ER stress sensor IRE1α to curb dendritic cell cross-presentation” (The Journal of Cell Biology, 2022):

Legend:
[1] = tested on: IRE1α in mouse embryonic fibroblasts (MEFs); assay: IRE1α activation in MEFs (immunoblot); type: cell-based; settings: ovalbumin, 4 h
Procedure: Figure S1. Antigen pulsing of BMDCs activates IRE1α. (A) BMDCs were treated with MG132 (5 μM) or ovalbumin (500 μg/ml) for indicated time points and analyzed by IB. (B) BMDCs were pulsed with ovalbumin (500 μg/ml) and G9668 (3 μM) for indicated time periods and analyzed by IB. (C) Molecular structure, potency, and kinase selectivity of G9668. (D) Schematic representation of G9668 interaction with 220 kinases at 1 μM. Size and color of circles represent interaction strength. Analysis was conducted by KinomeScan. (E) BMDCs were pulsed for 4 h with APC-tagged ovalbumin or soluble CD4-Fc protein (500 μg/ml) with amiloride (10 μM); uptake of protein was assayed by flow cytometry (n = 3). (F) WT or MyD88 KO Flt3L-derived BMDCs were pulsed with ovalbumin (500 μg/ml) or soluble CD4-Fc protein (500 μg/ml), or treated with LPS (10 μg/ml) for 4 h and analyzed by IB. (G) MEFs and BMDCs were pulsed with ovalbumin or treated with Tg (100 nM) for 4 h and analyzed by IB. Images in A, B, F, and G represent at least two similar experiments, and molecular weights represent kD; E bar graphs represent mean ± SD from three independent biological repeats. Analysis for E was performed using unpaired, two-tailed t test; *, P ≤ 0.05; **, P ≤ 0.01. Source data are available for this figure: SourceData FS1. […]

[2] = tested on: IRE1α LD-Fc; assay: Co-immunoprecipitation of ovalbumin with IRE1α LD-Fc; type: binding, human; settings: LD-Fc 10 μg/ml, 2 h; ovalbumin 1-300 μg/ml; in words
Procedure: For experiments testing ovalbumin binding, a human LD-Fc was used at indicated concentrations. LD-Fc is comprised of amino acids M1-D443 of IRE1α fused C-terminally to a linker ([…]) followed by the human IgG1 hinge and Fc portion. Ovalbumin (Sigma-Aldrich) was dissolved in sterile PBS and used in native state or denatured as indicated by incubation at 95°C buffer for 10 min.
For co-immunoprecipitation experiments, IRE1α LD-Fc (10 μg/ml) and ovalbumin (indicated concentrations) were co-incubated in binding buffer (as described above) for 2 h and then immunoprecipitated with anti-IRE1α LD antibody (made in-house at Genentech), conjugated to sepharose beads, overnight at 4°C. Beads were subsequently washed four times with lysis buffer and boiled in SDS sample buffer for 10 min. Samples were then analyzed by SDS-PAGE followed by immunoblot.

B1: ovalbumin: classical protein antigen ovalbumin (Sigma-Aldrich) (protein)
chain: MGSIGAASMEFCFDVFKELKVHHANENIFYCPIAIMSALAMVYLGAKDSTRTQINKVVRFDKLPGFGDSIEAQCGTSVNVHSSLRDILNQITKPNDVYSFSLASRLYAEERYPILPEYLQCVKELYRGGLEPINFQTAADQARELINSWVESQTNGIIRNVLQPSSVDSQTAMVLVNAIVFKGLWEKAFKDEDTQAMPFRVTEQESKPVQMMYQIGLFRVASMASEKMKILELPFASGTMSMLVLLPDEVSGLEQLESIINFEKLTEWTSSNVMEERKIKVYLPRMKMEEKYNLTSVLMAMGITDVFSSSANLSGISSAESLKISQAVHAAHAEINEAGREVVGSAEAGVDAASVSEEFRADHPFLFCIKHIATNAVLFFGRCVSP
[1]
  IRE1α activation, MEFs: did not display detectable IRE1α activation
[2]
  co-immunoprecipitation with IRE1α LD-Fc: did not show appreciable binding
